Measurements as given in patent publication US20190041390A1 (UNIVERSITY OF TENNESSEE RESEARCH FOUNDATION, published 2019).

Target: T1, streptavidin/gold (10 nm-diameter; Electron Microscopy Sciences) (UniProt P22629 37-163, limits assumed, conjugated to 10 nm gold particles)
T1 construct: Detection reagent; also called avidin-conjugated gold particles; gold particles
Assay: immunogold electron microscopy control, fibrils with recruited AL1κ and no mAb added
Description: Immunogold electron microscopy was used to investigate the binding sites of AL1κ LC on rVλ6Wil fibrils (FIG. 6A and FIG. 6B). The distribution of AL1κ LC (evidenced by the presence of anti-κ LC mAb-bound 10 nm-diameter gold particles; arrows) was generally at the ends of the rVλ6Wil fibrils and less commonly seen along the length of the fibril (arrowheads; FIG. 6A). A sample of fibrils with AL1κ LC recruited but with no mAb added served as a non-specific binding control. No gold particles were observed associated with the majority of fibrils in this preparation (FIG. 6B).
Twenty-five μg of rVλ6Wil fibrils were mixed with 1 μg […] in 200 μL of tris-buffered saline (TBS) with 0.05% tween-20 (TBST) in a 1.5 mL-volume microcentrifuge tube. The sample was rotated at RT for 24 h before being centrifuged at 20,000×g for 8 min, and the supernatant was discarded. The pellet was washed in 400 μL TBST twice by centrifugation, before the sample was split into two 200 μL-volume samples in TBST. To one sample, 10 μg each of two biotinylated anti-κ mAbs (αLKC8 and 14-6E4) were added; no antibodies were added to the other sample. Both samples were rotated 2 h at RT prior to two washes by centrifugation, as before. The pellets were resuspended in […] TBST with addition of a 1:4 dilution of streptavidin/gold stock solution ([…]; Electron Microscopy Sciences, Hatfield, Pa.). […]

T1 sequence (P22629 37-163 limits assumed): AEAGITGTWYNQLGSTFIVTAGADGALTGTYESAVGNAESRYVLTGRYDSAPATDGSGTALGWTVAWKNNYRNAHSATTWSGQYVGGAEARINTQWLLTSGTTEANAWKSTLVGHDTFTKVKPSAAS

B1: synthetic rVλ6Wil fibrils (other)
VL: NFLLTQPHSVSESPGKTVTISCTRSSGSIANNYVHWYQQRPGSSPTTVIFEDDHRPSGVPDRFSGSVDTSSNSASLTISGLKTEDEADYYCQSYDHNNQVFGGGTKLTVLG
notes: Amyloid fibril polymer of rVλ6Wil monomers; Used in suspension (pulldown), coupled to a CM-5 chip (SPR) or dried onto microplate wells; also called rVλ6Wil synthetic amyloid fibrils; rVλ6Wil fibril seed
- binding result: no binding
